Source: patent EP2506881B1

B1: humanized RS7 anti-Trop-2 antibody (hRS7 IgG) (antibody, INN chains, looked up, V domains shown)
VH: QVQLQQSGSELKKPGASVKVSCKASGYTFTNYGMNWVKQAPGQGLKWMGWINTYTGEPTYTDDFKGRFAFSLDTSVSTAYLQISSLKADDTAVYFCARGGFGSSYWYFDVWGQGSLVTVSS
VL: DIQLTQSPSSLSASVGDRVSITCKASQDVSIAVAWYQQKPGKAPKLLIYSASYRYTGVPDRFSGSGSGTDFTLTISSLQPEDFAVYYCQQHYITPLTFGAGTKVEIK
modifications: IgG

Key:
Trop-2 (human) [1] = target: Trop-2 (human) (UniProt P09758); test: cell-based or functional assay
Trop-2 (human) [2] = target: Trop-2 (human) (UniProt P09758); test: ELISA on Trop-2-expressing cell lines PC-3 and Calu-3, apparent KD
Trop-2 (human) [3] = target: Trop-2 (human) (UniProt P09758); test: ELISA on Trop-2-expressing cell lines PC-3 and Calu-3

Sequence of UniProt P09758 (P09758 27-323): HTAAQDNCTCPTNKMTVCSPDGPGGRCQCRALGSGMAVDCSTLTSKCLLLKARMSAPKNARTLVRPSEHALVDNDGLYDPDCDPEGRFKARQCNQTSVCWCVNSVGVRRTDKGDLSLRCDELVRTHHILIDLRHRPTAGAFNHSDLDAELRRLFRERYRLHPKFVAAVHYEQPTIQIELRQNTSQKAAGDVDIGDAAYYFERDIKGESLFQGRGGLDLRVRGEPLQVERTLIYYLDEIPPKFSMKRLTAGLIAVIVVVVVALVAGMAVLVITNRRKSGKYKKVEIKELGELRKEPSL

Molecule	EC50, MTS cell proliferation assay, Calu-3 cells (Trop-2 (human) [1]) [nM]	EC50, MTS cell proliferation assay, MDA-MB-468 cells (Trop-2 (human) [1]) [nM]	EC50, MTS cell proliferation assay, ME-180 cells (Trop-2 (human) [1]) [nM]	EC50, MTS cell proliferation assay, T-47D cells (Trop-2 (human) [1]) [nM]	Kd (Trop-2 (human) [2]) [nM]	fold of apparent KD against hRS7 (Trop-2 (human) [3]) [fold]
2L-Rap(Q)-hRS7 (from UniProt P22069 1-104)	8.5	3.8	1.5	2	0.28	2
B1	–	–	–	–	0.14	–
